For assay [1], the target named is T1, α5β1 integrin (Homo sapiens, UniProt P05556+P08648).
T1 construct: purchased R&D Systems 3230-A5-050
Kind of assay: Solid phase assay, binding to coated integrin. Particulars: coated 25 nM α5β1 integrin; biotinylated QS-13 90 min, room temperature, 1 mM MgCl2 and CaCl2; streptavidin-peroxidase/TMB 450 nm; n = 4, 2 experiments. How it is done: Wells of a 96-well plate were coated with 25 nM α5β1 integrin (3230-A5-050; R&D Systems, Lille, France) in amounts overnight at room temperature. The coating was then blocked with TBS containing 5% dry milk, 1 mM MgCl2, and 1 mM CaCl2 for 2 h at room temperature. After washing three times with washing buffer (0.1% dry milk, 1 mM MgCl2, and 1 mM CaCl2 in TBS), the plate was incubated for 90 min at room temperature with 100 μL per well of ranging from 1.25 to 20.10^–11 moles/well biotinylated-QS-13 diluted in washing buffer. After 3 washes, 100 μL of streptavidin-peroxidase diluted 1/20000 in washing buffer were added to each well and incubated for 15 min at room temperature. After 4 washes, 100 μL per well of tetramethylbenzidine (TMB), a peroxidase substrate, were added and incubated in the dark for 15 min. The enzymatic reaction was stopped by adding 50 μL per well of 0.5 M H2SO4. The intensity of the yellow coloration was measured at 450 nm with a Biochrom Asys UVM 340 microplate reader.

Assay [2] concerns the target QS-13 peptide (…), minimal active sequence of Tetrastatin, the α4(IV) NC1 domain of collagen IV.
Assay [3] shares this target. This is another data set of the same source.
The test system of the next assay is HUVEC adhesion on QS-13. Put plainly: HUVEC adhesion on QS-13 coating with effector preincubation. The assay is classed as cell-based, Human. Particulars: peptide 20 μg/mL (legend Figure 5), 30 min preincubation; adhesion 60 min; n = 8, p < 0.001. The method, then: Cells were detached with 50 mM Hepes, 125 mM NaCl, 5 mM KCl, and 1 mM EDTA, washed three times with ECGM, pre-incubated for 30 min with effectors [mouse anti-human α5β1, catalog number 555614 from BD Pharmingen (10 μg/mL), irrelevant IgG ([…])]. 10,000 cells were seeded per well of a 96 well-plate previously coated with QS-13 and saturated with 1% BSA. After 60 min, cells were washed three times with HEPES buffered Balanced Salt Solution, fixed with 1.1% glutaraldehyde solution and stained with 1% crystal violet solution. Staining was extracted with 10% acetic acid and absorbance was read at 560 nm.
For in vitro experiments, results are expressed as the mean ± SD and statistical significance were determined using Student’s t-test. For in vivo experiments, the non-parametric Mann–Whitney test was performed.

Assay [4] deals with Biotinylated QS-13 (…-biot). Put plainly: SPR; Biacore T200, 25°C; biotinylated QS-13 captured on a streptavidin-coated CM5 chip; α5β1 integrin injected at 0.12-130 nM, 300 s; HBS (0.01 M HEPES pH 7.4, 0.15 M NaCl, 3.4 mM EDTA) with 0.05% P20; reference surface with an irrelevant biotinylated peptide; equilibrium response fitted to a 1:1 model. For orientation: SPR reads the build-up and loss of mass on a sensor chip optically.

Assay [5] deals with angiogenesis, tumor growth and metastasis. The arrangement: method as in Almokadem and Belani, 2012. Particulars: mice; ref Almokadem and Belani, 2012; cited from earlier work.
In another assay the test system is cancer patients. The arrangement: method as in 3 sources, one per row (each row's own in cited_ref): ref Besse et al., 2013 ||| ref Cianfrocca et al., 2006 ||| ref Alday-Parejo et al., 2019. To be noted: cited from earlier work.
The target in assay [6] is T1, α5β1 integrin. Kind of assay: Surface plasmon resonance (Biacore T200). To be noted: biotinylated QS-13 (QKISRCQVCVKYSK-biot) captured on streptavidin CM5 chip; α5β1 integrin 0.12-130 nM; HBS pH 7.4, 3.4 mM EDTA, 0.05% P20, 25°C; Req fitted to 1:1 model. The assay is classed as binding. The method, then:
All experiments were performed on a Biacore T200 instrument (GE Healthcare) at 25°C. Sensor surfaces and other Biacore consumables were purchased from GE Healthcare. Integrin α5β1 was from R&D Systems. The running buffer, HEPES buffered saline (HBS, composed of 0.01 M HEPES, pH 7.4, 0.15 M NaCl, 3.4 mM EDTA) was filtered through a 0.22 μm membrane and supplemented with 0.05% P20. Biotinylated peptides were captured on streptavidin-coated sensor chips. Briefly, CM5 sensor chips (GE Healthcare) were preconditioned by duplicate injections of 10 mM HCl, 50 mM NaOH, each for 10 s, and water for 20 s. Before covalent immobilization of streptavidin, traces of biotinylated products that could remain in the flow system were neutralized by injecting a streptavidin solution (0.1 mg/mL in running buffer) for 5 min through all flow cells ([Baltzinger et al., 2013]). Streptavidin was then stably immobilized using standard amine-coupling methods. The flow rate was 10 μL/min. […] The equilibrium response (Req) was recorded 5 s before the end of integrin injection. The KD was determined by fitting the equilibrium response versus the [integrin] curve to a simple 1:1 interaction model with the Biacore T200 evaluation software (GE Healthcare).

In another assay the test system is cancer. Particulars: ref Stoeltzing et al., 2003; Khalili et al., 2006; cited from earlier work. From the text:
Peptides also emerged as important therapeutic agents in angiogenesis-dependent diseases due to their low toxicity and high specificity ([Rosca et al., 2011]).

The test system of the next assay is angiogenesis. Particulars: ref Petitclerc et al., 2000; Wietecha et al., 2013; Monboisse et al., 2014; cited from earlier work. From the text:
Basement membrane are composed of type IV collagen in association with other minor collagens, such as collagens XVIII or XIX, laminins, nidogens, and perlecan. Type IV collagen is composed of three α(IV) chains, out of six possible [α1(IV)-α6(IV)]. Each α(IV) chain comprises a 7S N-terminal domain, a long interrupted triple helical domain and a globular C-terminal non-collagenous (NC1) domain ([Wu and Ge, 2019]).

For the next assay, the system named is αvβ3 integrin. To be noted: tumor cell surface; ref Pasco et al., 2000; Brassart-Pasco et al., 2012; Lambert et al., 2018; cited from earlier work. From the text: The NC1 domains of the different α(IV) collagen chains were reported to exert anti-tumor or anti-angiogenic effects ([Mundel and Kalluri, 2007]; [Monboisse et al., 2014]; [Brassart-Pasco et al., 2020]).

In assay [7] the target is T1, α5β1 integrin. The arrangement: method as in Sudhakar et al., 2003. To be noted: ref Sudhakar et al., 2003; cited from earlier work.

Where a SMILES comes first, the peptide text is derived from it. Bridges are numbered along the chain shown (N, C = ends).

T1 sequence (P08648 42-894 limits assumed): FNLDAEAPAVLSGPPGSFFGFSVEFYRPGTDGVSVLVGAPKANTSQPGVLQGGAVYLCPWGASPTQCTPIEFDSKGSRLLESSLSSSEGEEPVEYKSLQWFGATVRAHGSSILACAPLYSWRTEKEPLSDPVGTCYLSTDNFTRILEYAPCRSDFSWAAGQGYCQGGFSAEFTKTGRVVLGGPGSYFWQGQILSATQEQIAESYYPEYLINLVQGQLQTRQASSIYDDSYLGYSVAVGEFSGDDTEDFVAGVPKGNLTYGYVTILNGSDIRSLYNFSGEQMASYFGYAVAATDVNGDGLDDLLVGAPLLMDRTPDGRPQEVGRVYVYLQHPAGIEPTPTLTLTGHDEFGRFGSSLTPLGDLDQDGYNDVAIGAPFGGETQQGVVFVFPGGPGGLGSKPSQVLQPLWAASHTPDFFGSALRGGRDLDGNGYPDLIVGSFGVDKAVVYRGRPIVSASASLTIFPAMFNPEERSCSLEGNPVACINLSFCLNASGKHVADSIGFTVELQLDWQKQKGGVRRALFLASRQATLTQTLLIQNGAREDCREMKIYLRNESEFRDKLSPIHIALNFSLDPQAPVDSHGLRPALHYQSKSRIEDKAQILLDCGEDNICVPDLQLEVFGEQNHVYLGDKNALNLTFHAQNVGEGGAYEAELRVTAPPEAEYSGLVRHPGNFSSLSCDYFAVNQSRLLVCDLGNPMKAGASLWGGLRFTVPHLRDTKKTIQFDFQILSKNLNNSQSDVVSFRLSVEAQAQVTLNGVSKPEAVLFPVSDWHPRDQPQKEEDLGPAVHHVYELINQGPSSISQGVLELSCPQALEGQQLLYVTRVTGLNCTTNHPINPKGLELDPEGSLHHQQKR
T1 sequence (P08648 895-995 partner limits assumed): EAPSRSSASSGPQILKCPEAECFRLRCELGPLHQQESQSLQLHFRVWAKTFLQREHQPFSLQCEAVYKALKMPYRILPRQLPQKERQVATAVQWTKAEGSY
T1 sequence (P05556 21-728 limits assumed): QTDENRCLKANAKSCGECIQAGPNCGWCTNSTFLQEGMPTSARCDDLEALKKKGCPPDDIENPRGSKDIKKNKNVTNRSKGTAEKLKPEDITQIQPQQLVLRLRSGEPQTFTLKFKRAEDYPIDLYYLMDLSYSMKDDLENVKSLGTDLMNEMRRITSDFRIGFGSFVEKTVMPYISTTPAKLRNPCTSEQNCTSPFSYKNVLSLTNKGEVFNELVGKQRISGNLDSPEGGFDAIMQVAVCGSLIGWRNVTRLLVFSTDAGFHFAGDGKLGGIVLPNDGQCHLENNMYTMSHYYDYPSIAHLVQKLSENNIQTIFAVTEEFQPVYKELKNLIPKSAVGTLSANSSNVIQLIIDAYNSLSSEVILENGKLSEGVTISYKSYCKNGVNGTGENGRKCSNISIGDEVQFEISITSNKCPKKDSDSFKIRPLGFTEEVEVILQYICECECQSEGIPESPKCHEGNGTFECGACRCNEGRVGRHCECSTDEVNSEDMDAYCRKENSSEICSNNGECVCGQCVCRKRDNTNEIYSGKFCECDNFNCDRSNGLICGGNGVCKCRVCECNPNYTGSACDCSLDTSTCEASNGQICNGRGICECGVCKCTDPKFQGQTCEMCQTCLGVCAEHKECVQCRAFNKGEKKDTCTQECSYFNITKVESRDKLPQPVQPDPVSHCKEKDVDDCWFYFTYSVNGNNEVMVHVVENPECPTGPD

“QKISRCQVCVKYSK-biot (disulfide) [biotinylated-QS-13]”: the “binding to α5β1 integrin” value on α5β1 integrin [1] was “binds to α5β1 integrin in a ligand concentration dependent manner”.

“α5β1 integrin of Human Umbilical Vein Endothelial Cells (HUVEC) (from UniProt P05556 21-798) (receptor)” came in with an HUVEC adhesion on coated QS-13 after pre-incubation of the cells with a blocking anti-α5β1 integrin antibody (10 μg/mL): inhibition of adhesion; an irrelevant IgG had no effect in [2] of 71%. Besides, the HUVEC adhesion on coated QS-13 after 30 min pre-incubation of the cells with RGDS peptide: change of adhesion in assay [3] is -60%. In the case of “RGDS [RGDS peptide, RGDS peptide (Sigma)]”, the “inhibition of HUVEC adhesion on QS-13 coating (peptide competition)” value in the assay with HUVEC adhesion on QS-13 is given as “about 60%”.

In general, Kd refers to the concentration at which binding is half-saturated. High values mean a looser complex, low ones a tighter complex. For “α5β1 integrin (recombinant, R&D Systems 3230-A5-050) (from UniProt P08648 42-1049; P05556 21-728) (receptor)”, the Kd in assay [4] was 20.3 nM. Take “M200/volociximab: anti-α5β1 integrin antibody”: in [5], the “effect on angiogenesis, tumor growth and metastasis” value is “inhibit angiogenesis and to suppress tumor growth and metastasis in mice”. Moreover, the “efficacy in advanced NSCLC” value in the assay on cancer patients (ref Besse et al., 2013) is on record as “preliminary evidence of efficacy in advanced NSCLC”. `CC[C@H](C)[C@H](NC(=O)[C@H](CCCCN)NC(=O)[C@@H](N)CCC(N)=O)C(=O)N[C@@H](CO)C(=O)N[C@@H](CCCNC(=N)N)C(=O)N[C@H]1CSSC[C@@H](C(=O)N[C@H](C(=O)N[C@@H](CCCCN)C(=O)N[C@@H](Cc2ccc(O)cc2)C(=O)N[C@@H](CO)C(=O)O)C(C)C)NC(=O)[C@H](C(C)C)NC(=O)[C@H](CCC(N)=O)NC1=O` [QS-13, QKISRCQVCVKYS] (H-QKISRCQVCVKYS-OH; disulfide 6-9) gave a Kd at α5β1 integrin [6] of 20.3 ± 7.5 nM. Turning to “Ac-PHSCN-NH(2) [ATN-161, reference compound]”, the clinical benefit result in the assay on cancer patients (ref Cianfrocca et al., 2006) was “failed to provide therapeutic benefits”. Further, in the assay with cancer, the preclinical anti-cancer activity result is “showed preclinical anti-cancer activities”.

B1: Canstatin: the α2(IV) NC1 domain (protein, UniProt P08572 1486-1712, looked up)
Canstatin: VSIGYLLVKHSQTDQEPMCPVGMNKLWSGYSLLYFEGQEKAHNQDLGLAGSCLARFSTMPFLYCNPGDVCYYASRNDKSYWLSTTAPLPMMPVAEDEIKPYISRCSVCEAPAIAIAVHSQDVSIPHCPAGWRSLWIGYSFLMHTAAGDEGGGQSLVSPGSCLEDFRATPFIECNGGRGTCHYYANKYSFWLTTIPEQSFQGSPSADTLKAGLIRTHISRCQVCMKNL
modifications: Canstatin
notes: the α2(IV) NC1 domain
As for B1, in the assay with angiogenesis, the effect on angiogenesis result is “inhibit angiogenesis”.

B2: Tumstatin: the α3(IV) NC1 domain (protein, UniProt Q01955 1426-1670, looked up)
Tumstatin: PGLKGKRGDSGSPATWTTRGFVFTRHSQTTAIPSCPEGTVPLYSGFSFLFVQGNQRAHGQDLGTLGSCLQRFTTMPFLFCNVNDVCNFASRNDYSYWLSTPALMPMNMAPITGRALEPYISRCTVCEGPAIAIAVHSQTTDIPPCPHGWISLWKGFSFIMFTSAGSEGTGQALASPGSCLEEFRASPFLECHGRGTCNYYSNSYSFWLASLNPERMFRKPIPSTVKAGELEKIISRCQVCMKKRH
modifications: Tumstatin
notes: the α3(IV) NC1 domain
Regarding B2, in the assay on angiogenesis, the effect on angiogenesis entry was “inhibit angiogenesis”. Also, the “integrin mediating anti-tumor activity” value in the assay on αvβ3 integrin was “mediated through binding to αvβ3 integrin”.

B3: endostatin: 20-kDa C-terminal fragment of type XVIII collagen (protein, UniProt P39060 1572-1754, looked up)
Endostatin: HSHRDFQPVLHLVALNSPLSGGMRGIRGADFQCFQQARAVGLAGTFRAFLSSRLQDLYSIVRRADRAAVPIVNLKDELLFPSWEALFSGSEGPLKPGARIFSFDGKDVLRHPTWPQKSVWHGSDPNGRRLTESYCETWRTEAPSATGQASSLLGGRLLGQSAASCHHAYIVLCIENSFMTASK
modifications: Endostatin
notes: 20-kDa C-terminal fragment of type XVIII collagen
Regarding B3, the “effect on α5β1 integrin” value with α5β1 integrin [7] is “inhibit α5β1 integrin”. The “clinical results with chemotherapies and radiotherapies” value with cancer patients (combination, ref Alday-Parejo et al., 2019) is listed as “the results were inconsistent”.

B4: Arresten: the α1(IV) NC1 domain (protein, UniProt P02462 1445-1669, looked up)
Arresten: GFLVTRHSQTIDDPQCPSGTKILYHGYSLLYVQGNERAHGQDLGTAGSCLRKFSTMPFLFCNINNVCNFASRNDYSYWLSTPEPMPMSMAPITGENIRPFISRCAVCEAPAMVMAVHSQTIQIPPCPSGWSSLWIGYSFVMHTSAGAEGSGQALASPGSCLEEFRSAPFIECHGRGTCNYYANAYSFWLATIERSEMFKKPTPSTLKAGELRTHVSRCQVCMRRT
modifications: Arresten
notes: the α1(IV) NC1 domain
Turning to B4, in the assay on angiogenesis, the effect on angiogenesis result is reported as “inhibit angiogenesis”.

Values taken from PMC7431705, “Angiogenesis Inhibition by a Short 13 Amino Acid Peptide Sequence of Tetrastatin, the α4(IV) NC1 Domain of Collagen IV” (Frontiers in Cell and Developmental Biology, 2020).
